Test results reported in the supplement of paper PMC12042874.
± gives the uncertainty stated by the source.

experiment: amyloid nucleation score (Sup35N fusion, yeast selection) (log enrichment); library NNK1; higher = more nucleation; inactive = no reads after selection
How it was run: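 Random libraries were run with three technical output replicates. In each, psi-negative yeast expressing Sup35N fused to peptides of 20 random codons were induced 24 hours with 100 μM copper sulfate and grown 7 days at 30°C on medium lacking adenine and uracil, and input and output plasmid inserts were Illumina-sequenced. The nucleation score is the DiMSum log enrichment of output over input reads, centred on the mode score of non-aggregating sequences, and sequences under 100 input reads were excluded.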

Question: Which amyloid nucleation score does the source give for VLCNFWMD here?
Answer: 2.9 ± 0.17

Question: With VLCSMDSVGSSGASGIFTYM as the substance, how does the amyloid nucleation score read?
Answer: -0.025 ± 0.4

Question: With VLDYGIVFNVVLLICIRTTE as the substance, how does the amyloid nucleation score read?
Answer: 4.87 ± 0.064

Question: For VLEDDSDWGSRFVRRGYIKT, which amyloid nucleation score is on record?
Answer: 1.15 ± 0.61

Question: With VLFAR as the substance, how does the amyloid nucleation score read?
Answer: 0.566 ± 0.48

Question: With VLFGTCCRVILLWSV as the substance, how does the amyloid nucleation score read?
Answer: 2.04 ± 0.43

Question: Which amyloid nucleation score does the source give for VLFIWTLF here?
Answer: 0.341 ± 0.26

Question: Which amyloid nucleation score does the source give for VLGKCVNR here?
Answer: -0.366 ± 0.21

Question: For VLGLGRENSLRVNFYRLCKS, which amyloid nucleation score is on record?
Answer: inactive

Question: Which amyloid nucleation score does the source give for VLHFHVDDMDYNFFSW here?
Answer: 0.578 ± 0.33

Question: For VLIINFLPVWWKTYLSMMIR, which amyloid nucleation score is on record?
Answer: -0.256 ± 0.45

Question: Which amyloid nucleation score does the source give for VLLACGIFKDPTSCFCMLSL here?
Answer: -0.432 ± 0.48

Question: For VLLVRSNKSKLDRHRDWSGK, which amyloid nucleation score is on record?
Answer: 0.466 ± 1.4

Question: For VLLYHNEDHWFCSRYYSSVS, which amyloid nucleation score is on record?
Answer: inactive

Question: With VLQDSGIAAYKYSGSCDCSF as the substance, how does the amyloid nucleation score read?
Answer: -1.07 ± 0.58

Question: For VLQRVQKPLLCMRVLDIYAW, which amyloid nucleation score is on record?
Answer: -0.11 ± 0.43

Question: Which amyloid nucleation score does the source give for VLSHVGFKSRMSVTNPGCLD here?
Answer: -0.562 ± 0.81

Question: Which amyloid nucleation score does the source give for VLTFPLFCIGKLIKN here?
Answer: 6.033 ± 0.045

Question: Which amyloid nucleation score does the source give for VLYGGDLALLSFDTGHPLFL here?
Answer: 0.297 ± 0.38

Question: With VMDVFV as the substance, how does the amyloid nucleation score read?
Answer: -0.292 ± 0.62

Question: For VMGFGTCVRKQCSNYLKGIE, which amyloid nucleation score is on record?
Answer: 0.476 ± 0.63

Question: For VMGNTDVVSDVSWVKCQKLK, which amyloid nucleation score is on record?
Answer: 0.328 ± 0.32

Question: With VMKELLMTHLLSCCLYSLCL as the substance, how does the amyloid nucleation score read?
Answer: 1.28 ± 0.34

Question: Which amyloid nucleation score does the source give for VMKLDGDPKQVFPGYSLMEG here?
Answer: -0.092 ± 0.36

Question: With VMLSSSGYELHVWRVGGSDG as the substance, how does the amyloid nucleation score read?
Answer: 0.093 ± 0.75

Question: For VMRVFILSMFWIVSECNRSY, which amyloid nucleation score is on record?
Answer: 2.38 ± 0.23

Question: With VMYPRATLSQLRLKVTN as the substance, how does the amyloid nucleation score read?
Answer: -0.116 ± 0.4

Question: Which amyloid nucleation score does the source give for VNCGRMSAGCREVGWVDGES here?
Answer: -0.316 ± 0.89

Question: With VNDYWNFCYVCWKYQSIILY as the substance, how does the amyloid nucleation score read?
Answer: 3.14 ± 0.18

Question: For VNKGFHFLILTTIINVDYGG, which amyloid nucleation score is on record?
Answer: 4.64 ± 0.07

Question: Which amyloid nucleation score does the source give for VNLFVLYPIYLFGSCSHNLM here?
Answer: 7.373 ± 0.053

Question: With VNPFIFLNRNCAPILGWTCC as the substance, how does the amyloid nucleation score read?
Answer: 3.11 ± 0.11

Question: For VNSVCSGGALMPGFKCAQLK, which amyloid nucleation score is on record?
Answer: -0.169 ± 0.81

Question: With VNVITCLY as the substance, how does the amyloid nucleation score read?
Answer: -1.33 ± 1.4

Question: For VNVLRTII, which amyloid nucleation score is on record?
Answer: 0.255 ± 0.27

Question: For VPDESDHFSFRVEMLSLKVD, which amyloid nucleation score is on record?
Answer: -0.639 ± 0.45

Question: With VPFLWLRLCRRCYLTMGCSI as the substance, how does the amyloid nucleation score read?
Answer: -0.491 ± 0.97

Question: Which amyloid nucleation score does the source give for VPGLRI here?
Answer: 0.584 ± 0.54

Question: With VPILIVFQQVADASRIRIMR as the substance, how does the amyloid nucleation score read?
Answer: 4.77 ± 0.059

Question: With VPLRTWLITWLGYNSHNWLC as the substance, how does the amyloid nucleation score read?
Answer: -0.302 ± 0.76

Question: Which amyloid nucleation score does the source give for VPVVRYYFTQFMDKYADDMF here?
Answer: 1.36 ± 0.58

Question: For VQFLLYSGFVQTILMPKASR, which amyloid nucleation score is on record?
Answer: 3.02 ± 0.15

Question: For VQVQVGSFELNSGQRRSVLK, which amyloid nucleation score is on record?
Answer: -0.516 ± 1.3

Question: Which amyloid nucleation score does the source give for VQWLHDMLVHFN here?
Answer: -0.022 ± 1

Question: For VRADHYFYITHIKLKMSRV, which amyloid nucleation score is on record?
Answer: inactive

Question: For VRDKSGPYYSSV, which amyloid nucleation score is on record?
Answer: 0.705 ± 0.4

Question: For VRDYAGPFSFPYRSLRSEWQ, which amyloid nucleation score is on record?
Answer: 0.193 ± 0.56

Question: Which amyloid nucleation score does the source give for VRGPGDGFWLEDGTGSHSYR here?
Answer: -0.078 ± 0.42

Question: With VRHMWWVFPIFEISVRKCPV as the substance, how does the amyloid nucleation score read?
Answer: -0.116 ± 1

Question: Which amyloid nucleation score does the source give for VRIILWTMDVIFRLMFTRDQ here?
Answer: 0.41 ± 0.51

Question: With VRKCRVNYGENGFKYRTRTM as the substance, how does the amyloid nucleation score read?
Answer: 0.739 ± 0.4

Question: Which amyloid nucleation score does the source give for VRLRDVILSKVATMSF here?
Answer: -0.363 ± 0.27

Question: With VRMIT as the substance, how does the amyloid nucleation score read?
Answer: 0.388 ± 0.64

Question: Which amyloid nucleation score does the source give for VRNNNFAYVNSVTDGVRYAR here?
Answer: inactive

Question: With VRRGFGPIITLYNFIISIWF as the substance, how does the amyloid nucleation score read?
Answer: 0.895 ± 0.79

Question: Which amyloid nucleation score does the source give for VRRQRKVVLPTLMGNASGRP here?
Answer: -0.183 ± 0.43

Question: Which amyloid nucleation score does the source give for VRSFGWTEFKCVTFFQEWIS here?
Answer: -0.029 ± 0.44

Question: For VRSWVLVLQSMCGLLSGGYG, which amyloid nucleation score is on record?
Answer: -0.802 ± 0.96

Question: For VRWNWSGPNELYLRLFCRLP, which amyloid nucleation score is on record?
Answer: -0.508 ± 0.39

Question: With VRYSL as the substance, how does the amyloid nucleation score read?
Answer: -0.42 ± 0.35

Question: For VSDYFG, which amyloid nucleation score is on record?
Answer: 0.229 ± 0.87

Question: Which amyloid nucleation score does the source give for VSFILGSNCWAYKTTPMGFL here?
Answer: 0.881 ± 0.39

Question: With VSLAAPGCGFGCQRSRGASQ as the substance, how does the amyloid nucleation score read?
Answer: 0.013 ± 1.1

Question: Which amyloid nucleation score does the source give for VSLFLYISLSLRIVRRYVRV here?
Answer: 0.263 ± 0.27

Question: For VSLNASPL, which amyloid nucleation score is on record?
Answer: 0.902 ± 0.57

Question: For VSLRCWCWGGTHVKPQRGYV, which amyloid nucleation score is on record?
Answer: 0.377 ± 0.77

Question: For VSPRFGLSSMGNYQKVLVYI, which amyloid nucleation score is on record?
Answer: -0.651 ± 1.7

Question: Which amyloid nucleation score does the source give for VSRVDCDNFGLRSRVSAL here?
Answer: 0.503 ± 0.37

Question: For VSRYLWIIGRGWVN, which amyloid nucleation score is on record?
Answer: 0.412 ± 0.39

Question: Which amyloid nucleation score does the source give for VSTILYFDFVSVLPSALIEK here?
Answer: 3.23 ± 0.18

Question: With VSVFCTSFWASTKLYWTVSE as the substance, how does the amyloid nucleation score read?
Answer: -0.351 ± 0.6

Question: For VSYMQSVVHCGPKARCKWRC, which amyloid nucleation score is on record?
Answer: 0.964 ± 0.67

Question: For VTLSLMCWNFALRFVSLGRS, which amyloid nucleation score is on record?
Answer: 4.02 ± 0.071

Question: For VTLSTAIVTNEFMSDISTGY, which amyloid nucleation score is on record?
Answer: -0.712 ± 0.52

Question: Which amyloid nucleation score does the source give for VTMRLL here?
Answer: 0.968 ± 0.63

Question: With VTRCVAVAFSLGYLVIKCAL as the substance, how does the amyloid nucleation score read?
Answer: -0.243 ± 0.76

Question: With VTSDLLD as the substance, how does the amyloid nucleation score read?
Answer: 0.283 ± 0.4

Question: For VTSLYQDVT, which amyloid nucleation score is on record?
Answer: -2.31 ± 2.4

Question: With VTSWDMS as the substance, how does the amyloid nucleation score read?
Answer: 0.016 ± 0.26

Question: Which amyloid nucleation score does the source give for VVADVAPR here?
Answer: -0.14 ± 0.34

Question: Which amyloid nucleation score does the source give for VVCQVNIHLNGVCLHRCLEE here?
Answer: 6.862 ± 0.059

Question: With VVCRPTWRWGLKEIYE as the substance, how does the amyloid nucleation score read?
Answer: -0.133 ± 0.83

Question: For VVEKYSCIRESFHEGFG, which amyloid nucleation score is on record?
Answer: -1.07 ± 1.7

Question: Which amyloid nucleation score does the source give for VVFSWRIDSFGREEKGA here?
Answer: 0.349 ± 0.81

Question: For VVGFYEWGQSREISSLRGGC, which amyloid nucleation score is on record?
Answer: 0.382 ± 0.58

Question: Which amyloid nucleation score does the source give for VVGVYYSCIYVGAYNLGSIP here?
Answer: 4.77 ± 0.1
